Where two headings read alike, the source gives them in different places.
Assays:
Assay in all cases: cell-based or functional assay
[1] = molecular target: T1, recombinant human TFPI (tissue factor pathway inhibitor) (human, UniProt P10646 29-304)
[2] = molecular target: T1, recombinant human TFPI (tissue factor …); remark: listed apart in the source
[3] = molecular target: T1, recombinant human TFPI (tissue factor …); remark: listed apart in the source
[4] = molecular target: T1, recombinant human TFPI (tissue factor …); remark: listed apart in the source
[5] = molecular target: T1, recombinant human TFPI (tissue factor …); remark: listed apart in the source
[6] = molecular target: T1, recombinant human TFPI (tissue factor …); remark: listed apart in the source
[7] = molecular target: T1, recombinant human TFPI (tissue factor …); remark: listed apart in the source
[8] = molecular target: T1, recombinant human TFPI (tissue factor …); remark: listed apart in the source
[9] = molecular target: T1, recombinant human TFPI (tissue factor …); remark: listed apart in the source
[10] = molecular target: T1, recombinant human TFPI (tissue factor …); remark: listed apart in the source
[11] = molecular target: T1, recombinant human TFPI (tissue factor …); remark: listed apart in the source
[12] = molecular target: T1, recombinant human TFPI (tissue factor …); remark: listed apart in the source
[13] = molecular target: T1, recombinant human TFPI (tissue factor …); remark: listed apart in the source
[14] = molecular target: T1, recombinant human TFPI (tissue factor …); remark: listed apart in the source
[15] = molecular target: T1, recombinant human TFPI (tissue factor …); remark: listed apart in the source
[16] = molecular target: T1, recombinant human TFPI (tissue factor …); remark: listed apart in the source
[17] = molecular target: T1, recombinant human TFPI (tissue factor …); remark: listed apart in the source

TFPI inhibitory activity, FXa activity assay, Ab 10 nM [1]: 78.4% | effect of inhibiting TFPI, FXa activity assay, Ab 10 nM [1]: 72% | A405, TF/FVIIa/FX complex assay, Ab 1.56 nM [2]: 0.134 | A405, TF/FVIIa/FX complex assay, Ab 3.13 nM [2]: 0.147 | A405, TF/FVIIa/FX complex assay, Ab 6.25 nM [2]: 0.179 | A405, TF/FVIIa/FX complex assay, Ab 12.5 nM [2]: 0.242 | A405, TF/FVIIa/FX complex assay, Ab 25 nM [2]: 0.873 | A405, TF/FVIIa/FX complex assay, Ab 50 nM [2]: 0.945 | A405, TF/FVIIa/FX complex assay, Ab 100 nM [2]: 0.949 | % of Normalized, TF/FVIIa/FX complex assay, Ab 1.56 nM [3]: 14.5% | % of Normalized, TF/FVIIa/FX complex assay, Ab 3.13 nM [3]: 16% | % of Normalized, TF/FVIIa/FX complex assay, Ab 6.25 nM [3]: 19.4% | % of Normalized, TF/FVIIa/FX complex assay, Ab 12.5 nM [3]: 26.3% | % of Normalized, TF/FVIIa/FX complex assay, Ab 25 nM [3]: 95% | % of Normalized, TF/FVIIa/FX complex assay, Ab 50 nM [3]: 103% | % of Normalized, TF/FVIIa/FX complex assay, Ab 100 nM [3]: 103% | A405, TF/FVIIa/FX complex assay, Ab 1.56 nM [4]: 0.145 | A405, TF/FVIIa/FX complex assay, Ab 3.13 nM [4]: 0.16 | A405, TF/FVIIa/FX complex assay, Ab 6.25 nM [4]: 0.186 | A405, TF/FVIIa/FX complex assay, Ab 12.5 nM [4]: 0.251 | A405, TF/FVIIa/FX complex assay, Ab 25 nM [4]: 0.88 | A405, TF/FVIIa/FX complex assay, Ab 50 nM [4]: 0.908 | A405, TF/FVIIa/FX complex assay, Ab 100 nM [4]: 0.945 | A405, TF/FVIIa/FX complex assay, Ab 1.56 nM [5]: 0.16 | A405, TF/FVIIa/FX complex assay, Ab 3.13 nM [5]: 0.158 | A405, TF/FVIIa/FX complex assay, Ab 6.25 nM [5]: 0.183 | A405, TF/FVIIa/FX complex assay, Ab 12.5 nM [5]: 0.253 | A405, TF/FVIIa/FX complex assay, Ab 25 nM [5]: 0.894 | A405, TF/FVIIa/FX complex assay, Ab 50 nM [5]: 0.938 | A405, TF/FVIIa/FX complex assay, Ab 100 nM [5]: 0.931 | A405, TF/FVIIa/FX complex assay (FX 5 nM), Ab 1.56 nM [6]: 0.045 | A405, TF/FVIIa/FX complex assay (FX 5 nM), Ab 3.13 nM [6]: 0.049 | A405, TF/FVIIa/FX complex assay (FX 5 nM), Ab 6.25 nM [6]: 0.05 | A405, TF/FVIIa/FX complex assay (FX 5 nM), Ab 12.5 nM [6]: 0.072 | A405, TF/FVIIa/FX complex assay (FX 5 nM), Ab 25 nM [6]: 0.154 | A405, TF/FVIIa/FX complex assay (FX 5 nM), Ab 50 nM [6]: 0.509 | A405, TF/FVIIa/FX complex assay (FX 5 nM), Ab 100 nM [6]: 0.745 | % of Normalized, TF/FVIIa/FX complex assay (FX 5 nM), Ab 1.56 nM [7]: 5.5% | % of Normalized, TF/FVIIa/FX complex assay (FX 5 nM), Ab 3.13 nM [7]: 6% | % of Normalized, TF/FVIIa/FX complex assay (FX 5 nM), Ab 6.25 nM [7]: 6.2% | % of Normalized, TF/FVIIa/FX complex assay (FX 5 nM), Ab 12.5 nM [7]: 8.9% | % of Normalized, TF/FVIIa/FX complex assay (FX 5 nM), Ab 25 nM [7]: 19% | % of Normalized, TF/FVIIa/FX complex assay (FX 5 nM), Ab 50 nM [7]: 62.9% | % of Normalized, TF/FVIIa/FX complex assay (FX 5 nM), Ab 100 nM [7]: 92% | A405, TF/FVIIa/FX complex assay, Ab 1.56 nM [8]: 0.045 | A405, TF/FVIIa/FX complex assay, Ab 3.13 nM [8]: 0.047 | A405, TF/FVIIa/FX complex assay, Ab 6.25 nM [8]: 0.05 | A405, TF/FVIIa/FX complex assay, Ab 12.5 nM [8]: 0.074 | A405, TF/FVIIa/FX complex assay, Ab 25 nM [8]: 0.273 | A405, TF/FVIIa/FX complex assay, Ab 50 nM [8]: 0.6 | A405, TF/FVIIa/FX complex assay, Ab 100 nM [8]: 0.81 | FXa assay % of FXa alone, 0.625 nM Ab, 10 nM TFPI [9]: 6% | FXa assay % of FXa alone, 2.5 nM Ab, 10 nM TFPI [9]: 10% | FXa assay OD, 0.625 nM Ab, 10 nM TFPI [9]: 0.061 OD | FXa assay OD, 2.5 nM Ab, 10 nM TFPI [9]: 0.098 OD | FXa assay OD, 10 nM Ab, 10 nM TFPI [9]: 0.753 OD | FXa assay OD, 40 nM Ab, 10 nM TFPI [9]: 0.887 OD | TF/FVIIa/FXa assay % of 0 nM TFPI, 12.5 nM Ab, 50 nM TFPI [10]: 21.2% | TF/FVIIa/FXa assay % of 0 nM TFPI, 50 nM Ab, 50 nM TFPI [10]: 115% | TF/FVIIa/FXa assay % of 0 nM TFPI, 100 nM Ab, 50 nM TFPI [10]: 113% | TF/FVIIa/FXa assay OD, 12.5 nM Ab, 50 nM TFPI [10]: 0.17 OD | TF/FVIIa/FXa assay OD, 25 nM Ab, 50 nM TFPI [10]: 0.696 OD | TF/FVIIa/FXa assay OD, 50 nM Ab, 50 nM TFPI [10]: 0.924 OD | TF/FVIIa/FXa assay OD, 100 nM Ab, 50 nM TFPI [10]: 0.907 OD | FXa assay % of FXa alone, 2.5 nM Ab, 10 nM TFPI [11]: 17.6% | FXa assay % of FXa alone, 5 nM Ab, 10 nM TFPI [11]: 75.9% | FXa assay % of FXa alone, 10 nM Ab, 10 nM TFPI [11]: 85.2% | FXa assay % of FXa alone, 20 nM Ab, 10 nM TFPI [11]: 93.3% | FXa assay OD, 2.5 nM Ab, 10 nM TFPI [11]: 0.127 | FXa assay OD, 5 nM Ab, 10 nM TFPI [11]: 0.546 | FXa assay OD, 10 nM Ab, 10 nM TFPI [11]: 0.613 | FXa assay OD, 20 nM Ab, 10 nM TFPI [11]: 0.67 | FXa assay % of FXa alone, 2.5 nM Ab, 10 nM TFPI [12]: 9.2% | FXa assay % of FXa alone, 5 nM Ab, 10 nM TFPI [12]: 43.8% | FXa assay % of FXa alone, 10 nM Ab, 10 nM TFPI [12]: 75.2% | FXa assay % of FXa alone, 20 nM Ab, 10 nM TFPI [12]: 88.6% | FXa assay OD, 2.5 nM Ab, 10 nM TFPI [12]: 0.071 | FXa assay OD, 5 nM Ab, 10 nM TFPI [12]: 0.337 | FXa assay OD, 10 nM Ab, 10 nM TFPI [12]: 0.579 | FXa assay OD, 20 nM Ab, 10 nM TFPI [12]: 0.682 | FXa assay % of FXa alone, 2.5 nM Ab, 10 nM TFPI [13]: 6.9% | FXa assay % of FXa alone, 5 nM Ab, 10 nM TFPI [13]: 18.8% | FXa assay % of FXa alone, 10 nM Ab, 10 nM TFPI [13]: 55.2% | FXa assay % of FXa alone, 20 nM Ab, 10 nM TFPI [13]: 78% | FXa assay OD, 2.5 nM Ab, 10 nM TFPI [13]: 0.0335 | FXa assay OD, 5 nM Ab, 10 nM TFPI [13]: 0.091 | FXa assay OD, 10 nM Ab, 10 nM TFPI [13]: 0.267 | FXa assay OD, 20 nM Ab, 10 nM TFPI [13]: 0.378 | FXa assay % of FXa alone, 2.5 nM Ab, 10 nM TFPI [14]: 7.7% | FXa assay % of FXa alone, 5 nM Ab, 10 nM TFPI [14]: 29.9% | FXa assay % of FXa alone, 10 nM Ab, 10 nM TFPI [14]: 56.8% | FXa assay % of FXa alone, 20 nM Ab, 10 nM TFPI [14]: 75.6% | FXa assay OD, 2.5 nM Ab, 10 nM TFPI [14]: 0.0625 | FXa assay OD, 5 nM Ab, 10 nM TFPI [14]: 0.242 | FXa assay OD, 10 nM Ab, 10 nM TFPI [14]: 0.461 | FXa assay OD, 20 nM Ab, 10 nM TFPI [14]: 0.614 | FXa assay % of FXa alone, 2.5 nM Ab, 10 nM TFPI [15]: 5.5% | FXa assay % of FXa alone, 5 nM Ab, 10 nM TFPI [15]: 7.1% | FXa assay % of FXa alone, 10 nM Ab, 10 nM TFPI [15]: 28.8% | FXa assay % of FXa alone, 20 nM Ab, 10 nM TFPI [15]: 54.5% | FXa assay OD, 2.5 nM Ab, 10 nM TFPI [15]: 0.048 | FXa assay OD, 5 nM Ab, 10 nM TFPI [15]: 0.062 | FXa assay OD, 10 nM Ab, 10 nM TFPI [15]: 0.251 | FXa assay OD, 20 nM Ab, 10 nM TFPI [15]: 0.474 | FXa assay % of FXa alone, 2.5 nM Ab, 10 nM TFPI [16]: 7.2% | FXa assay % of FXa alone, 5 nM Ab, 10 nM TFPI [16]: 10.2% | FXa assay % of FXa alone, 10 nM Ab, 10 nM TFPI [16]: 43.9% | FXa assay % of FXa alone, 20 nM Ab, 10 nM TFPI [16]: 66.9% | FXa assay OD, 2.5 nM Ab, 10 nM TFPI [16]: 0.0855 | FXa assay OD, 5 nM Ab, 10 nM TFPI [16]: 0.122 | FXa assay OD, 10 nM Ab, 10 nM TFPI [16]: 0.522 | FXa assay OD, 20 nM Ab, 10 nM TFPI [16]: 0.797 | FXa assay % of FXa alone, 2.5 nM Ab, 10 nM TFPI [17]: 6.9% | FXa assay % of FXa alone, 5 nM Ab, 10 nM TFPI [17]: 20% | FXa assay % of FXa alone, 10 nM Ab, 10 nM TFPI [17]: 45.4% | FXa assay % of FXa alone, 20 nM Ab, 10 nM TFPI [17]: 72.9% | FXa assay OD, 2.5 nM Ab, 10 nM TFPI [17]: 0.057 | FXa assay OD, 5 nM Ab, 10 nM TFPI [17]: 0.165 | FXa assay OD, 10 nM Ab, 10 nM TFPI [17]: 0.375 | FXa assay OD, 20 nM Ab, 10 nM TFPI [17]: 0.603
B1: clone T417 (antibody, V domains shown)
VH: EVHLVESGGDLVKPGGSLKLSCAASGFTFSSYAMSWVRQTPDKRLEWVATITTGGSYTYYPDSVKGRFTISRDNAKNTLYLQMSSLKSEDTAMYYCARQDGNFLMDYWGQGTTVTVSS
VL: not shown
notes: also called T417 chimeric antibody
